Patent publication US20230279130A1 (QILU PUGET SOUND BIOTHERAPEUTICS, published 2023)

B1: engineered anti CCR8 Fab 1047 (Fab, V domains shown)
VH: EVQLVESGGGVVQPGRSLRLSCAASGFPFEPFAMNWVRQAPGKGLEWVARIRSKANNYATYYADSVKDRFAISRDNSKSTLYLLMHSLRFEDTAVYYCVRGRENNYGYAMDYWGQGTTVTVSS
VL: DVVMTQSPPSLPVTLGQSASISCRSSQSLLHSNGITYLYWFLQRPGQSPRLLIYRMSNLASGVPDRFSGSGSGTDFTLRISRVEAEDVGVYYCMQHLTYPFTFGIGTKVEIK
notes: Fab made by digesting the antibody; also called Fab fragment of 1047
B2: Fab fragment of anti-CCR8 antibody 1434 (Fab, V domains shown)
VH: EVQLVESGGGLVQPGGSLRLSCAASGFPFEPFAMNWVRQAPGKGLEWVGRIRSKANNYATYYADSVKDRFTISRDDSKRSLYLLMNSLKFEDTAVYYCVRGRENNYGYAMDYWGQGTTVTVSS
VL: DVVMTQSPLSLPVTLGQPASISCRSSQSLLHSNGITYLYWFQQRPGQSPRRLIYRMSNLASGVPDRFSGSGSGTDFTLKISRVEAEDVGVYYCMQHLTYPFTFGIGTKVEIK
B3: Fab fragment of anti-CCR8 antibody 1187 (Fab, V domains shown)
VH: EVQLVESGGGVVQPGRSLRLSCAASGFPFEPFAMNWVRQAPGKGLEWVARIRSKANNYATYYADSVKDRFAISRDNSKRTLYLLMHSLRFEDTAVYYCVRGRENNYGYAMDYWGQGTTVTVSS
VL: DVVMTQSPPSLPVTLGQSASISCRSSQSLLHSNGITYLYWFLQRPGQSPRLLIYRMSNLASGVPDRFSGSGSGTDFTLRISRVEAEDVGVYYCMQHLTYPFTFGIGTKVEIK
notes: also called Fab 51
B4: engineered anti-CCR8 Fab 953 (Fab, V domains shown)
VH: EVQLVESGGGVVQPGRSLRLSCAASGFPFEPFAMNWVRQAPGKGLEWVARIRSKANNYATYYADSVKDRFAISRDNSKSTLYLLMHSLRFEDTAVYYCVRGRENRYGYAMDYWGQGTTVTVSS
VL: DVVMTQSPPSLPVTLGQSASISCRSSQSLLHSNGITYLYWFLQRPGQSPRLLIYRMSNLASGVPDRFSGSGSGTDFTLRISRVEAEDVGVYYCMQHLTYPFTFGIGTKVEIK
notes: Fab made by digesting the antibody
B5: anti-CCR8 antibody 1187 (antibody, V domains shown)
VH: EVQLVESGGGVVQPGRSLRLSCAASGFPFEPFAMNWVRQAPGKGLEWVARIRSKANNYATYYADSVKDRFAISRDNSKRTLYLLMHSLRFEDTAVYYCVRGRENNYGYAMDYWGQGTTVTVSS
VL: DVVMTQSPPSLPVTLGQSASISCRSSQSLLHSNGITYLYWFLQRPGQSPRLLIYRMSNLASGVPDRFSGSGSGTDFTLRISRVEAEDVGVYYCMQHLTYPFTFGIGTKVEIK

Key:
[1] = biological target: T1, full length human CCR8 (hCCR8) (human, UniProt P51685 1-355); assay: cell-based or functional assay
[2] = biological target: T2, recombinant hCCR8 N-terminus fused at the N-terminal of Fc region of human IgG1 (human); assay: SPR (Biacore 3000), Fab flowed over captured CCR8-fc; column head printed 'K0' (KD)
T2 construct: also called recombinant huCCR8-N terminus antigen; huCCR8 N-terminus protein; not shown: Fc region of human IgG1
T2 sequence (chain, as listed by the source): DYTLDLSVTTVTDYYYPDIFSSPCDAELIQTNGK
Description: (§1) FIGS. 1A-1D: Binding of anti-CCR8 Fabs to recombinant huCCR8-N terminus antigen (Seq No.1). Binding affinity of anti-CCR8 Fabs for huCCR8 N-terminus protein was determined by Biacore analysis. Digested anti-CCR8 Fab fragments were flowed over captured antigen.
(§2) The affinity of the candidate antibodies for human CCR8 was assessed using SPR on a Biacore 3000 instrument. Anti-CCR8 Fab fragments were flowed over the cells in the chip with multiple blank (running buffer) injections also run to subtract system artifacts. The data were aligned, double referenced, and fit using SCRUBBER 2™ software (BioLogic Software, Pty, Australia). […] The binding of anti-CCR8 antibodies to CCR8 was then examined in HEK293 cells or P815 cells transfected with full-length hCCR8.

[3] = biological target: T2, recombinant hCCR8 N-terminus fused at …; assay: SPR, Biacore 3000; Fab flowed over captured hCCR8 N-terminus-Fc
Description: as §1, §2

[4] = biological target: T1, full length human CCR8 (hCCR8); assay: cell-based or functional assay; remark: listed apart in the source

| Binder | average IC50 of inhibition of CCL1-mediated chemotaxis of hCCR8 P815 cells [1] | Kd [2] | further results |
| --- | --- | --- | --- |
| B1 | 1.09 nM | 0.876 nM |  |
| B2 | 0.414 nM |  |  |
| B3 | 0.254 nM |  | Kd [3]: 0.647 nM; fold improvement of binding affinity against the original anti-CCR8 antibody candidate [3]: 2.5 fold; IC50 of inhibition of CCL1-mediated chemotaxis of hCCR8 P815 cells [1]: ~0.035 µg/mL |
| B4 | 0.15 nM | 0.385 nM |  |
| B5 |  |  | IC50, inhibition of chemotaxis of hCCR8-transfected P815 cells to 1 nM CCL1 (intact IgG1, Cell Titer Glo) [4]: 0.00403 µg/mL |
